From patent US20040208887A1 (MOLECULES OF MAN, published 2004)

Key:
[1] = target: T1, recombinant soluble HCV E1 protein (hepatitis C virus); assay: ELISA, recombinant E1 captured on GNA lectin; crude periplasmic Fab
T1 construct: It is not the cell-surface E1-myc construct (aa 174-359 of H77c) that was used for phage selection; also called recombinant E1; soluble E1 protein

[2] = target: T2, recombinant E1/E2 heterodimer protein (genotype 1a) (hepatitis C virus genotype 1a, UniProt P26664 192-383; P26664 384-746, limits assumed); assay: ELISA, E1/E2 heterodimer coated; crude periplasmic Fab
T2 construct: also called E1/E2 in complex; recombinant E1/E2 antigen
T2 sequence (P26664 192-383 limits assumed, chain 1 of 2): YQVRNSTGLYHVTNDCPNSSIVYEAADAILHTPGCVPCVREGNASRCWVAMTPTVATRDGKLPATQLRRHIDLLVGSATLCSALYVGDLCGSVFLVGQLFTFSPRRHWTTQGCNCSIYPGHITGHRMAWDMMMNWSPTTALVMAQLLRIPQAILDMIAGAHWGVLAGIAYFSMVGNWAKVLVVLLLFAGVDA
T2 sequence (P26664 384-746 limits assumed, chain 2 of 2): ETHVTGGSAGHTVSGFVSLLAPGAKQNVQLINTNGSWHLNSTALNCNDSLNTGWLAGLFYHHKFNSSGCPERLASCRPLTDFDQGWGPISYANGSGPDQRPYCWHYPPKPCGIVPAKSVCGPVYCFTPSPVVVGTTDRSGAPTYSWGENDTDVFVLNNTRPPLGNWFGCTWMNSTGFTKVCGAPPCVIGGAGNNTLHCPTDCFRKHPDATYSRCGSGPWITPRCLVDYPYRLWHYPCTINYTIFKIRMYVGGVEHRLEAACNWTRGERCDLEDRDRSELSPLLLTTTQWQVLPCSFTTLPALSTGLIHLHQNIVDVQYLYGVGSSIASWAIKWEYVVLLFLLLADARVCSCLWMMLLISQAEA

Row | Binder | OD405 nm [1] [OD405 nm] | OD405 nm [2] [OD405 nm]
1 | Fab clone 2a-4 (Fab, V domains shown, Human Fab (gamma1 Fd + kappa), crude periplasmic preparation, approx. 1.0 ug Fab/ml) VH: not shown VL: AELTQSPSSLSASIGDRVAISCQASQDIGNYLNWYQQKPGKAPRLLIYDASNLEAGVPSRFSGSGSGTDFTLTISTLQPEDFATFYCQQTDSTPYTFGQGTKLEIR | 1.18 | –
2 | Fab clone 2a-30 (Fab, V domains shown, Human Fab (gamma1 Fd + kappa), crude periplasmic preparation, approx. 0.96 ug Fab/ml) VH: VQLLEQSGGGLVQPGGSLRLSCTASGFTLTDYSMDWVRQAPGKGPEWVGRSRNKANIYTTEYAASVKGRFVISRDDSENSVYLQMNNVKMDDTAVYYCARGEGIFYGSGSLDLWGQGAVVTVSS VL: AELTQSPSSLSASVGDRVTITCRSSQSISNSLHWFQQEPGKAPKLLIYAASTLQSGVPSRFSGSGSGTDFTLIITGLQPEDFATYYCQQSPRTPLTFGGGTKVEIR | 1.11 | 0.52
3 | Fab clone 13 (Fab, V domains shown, Human Fab (gamma1 Fd + kappa light chain), tested as a crude periplasmic preparation, approx. >3 ug Fab/ml) VH: EVQLLESGGGLVQPGRSLRLSCAASGFTFDDYGMHWVRQAPGKGLEWVSGLSWNSDNIGYADSVKGRFTISRDNAKNSLYLQMNSLKIEDTAFYYCAKAPRTLRFLEWHNVYFDLWGRGTLVTVSS VL: not shown | 0.2 | –
4 | Fab clone 4:6 (Fab, V domains shown, Tested as a human Fab (gamma1 Fd + kappa), crude periplasmic preparation, approx. 0.24 ug Fab/ml) VH: VQLLEQSGAEVKKPGASVKVSCKASGYTFTKYYLHWVRQAPGQGLEWMGFINPSGGSTSSAQKFQGRISMTRDTSTTTVYMEVNSVTSEDTAVYYCARVGRLGVGATGAFDLWGQGTMVTVSS VL: AELTQSPSSLSASVGDRVTITCQASQDINYSLNWYQQKPGKPPKLLIYYASHSDTGVPSRFSGGGSGTRFTLTIYSLQPEDIATYYCQHFDHVPRYTFGPGTKVDLK | 0.97 | 0.2
5 | Fab clone 2a-32 (Fab, V domains shown, Human Fab (gamma1 Fd + kappa), crude periplasmic preparation, approx. >1 ug Fab/ml) VH: VQLLEQSGGDLVKPGGSLRLSCAASGFTFTDYYMNWIRQAPGKGLEWIAYISIGSDDTKYAASVKGRFSISRDNAKNSLYLQMNSLRVEDTAVYYCGRGGGYCSGGNCYSSDYWGQGALVTVSS VL: AELTQSPSSLSAFTGDRVSITCRASQGIGNSLAWYQQKPGHVPKVLIYDASTLSSGAPSRFSGSGSGTDFTLTISGLQPEDVATYYCQKYKSAPLTFGGGTKVEIR | 0.61 | 0.09
6 | Fab clone 2a-5 (Fab, V domains shown, Human Fab (gamma1 Fd + kappa), crude periplasmic preparation, approx. 0.44 ug Fab/ml) VH: EVQLLESGPGLVKPSETLSLTCTVSTGSISGYFWSWIRQPPGKGLEWIAYIHNSGNTNYNPSLRSRVTVSIDTSKNQFSLKLTSVTAADTAVYYCARDGGGWDTYLDSWGQGFLVTVSS VL: AELTQSPSSLSASVGDRVTITCRASQTVSSYLNWYQQKPGKAPKVLIYGISTLQSGVPSRFSGSGSETDFTLTISNLQPEDFAIYYCQQSYSSRTFGQGTKVEIK | 0.89 | 0.08
7 | Fab clone 2a-25 (Fab, V domains shown, Human Fab (gamma1 Fd + kappa), crude periplasmic preparation, approx. 0.11 ug Fab/ml) VH: VQLLEQSGAEVKKPGASVKVSCKASGYMFTCYYMHWVRQAPGQGLEWMGMVNPTGGSSSYAQKFQGRVTMTKGHVTSTVYMELSSLRSEDTAVYYCATGMVRGDEWGQGTLVTVSS VL: AELTQSPSFSSASVGDRVTITCRASHGISSHLAWFQHKPGKAPNLLIYAASTLQSGVPSRFSGSQSGTEFTLTITSLHPEDFATYYCQQLYTWPMGFGQGTRLEIT | 1.46 | –
8 | Fab clone 1:9 (Fab, V domains shown, Human Fab (gamma1 Fd + kappa), crude periplasmic preparation, approx. 0.05 ug Fab/ml) VH: EVQLLESGPGLVKPSETLSLTCTVSGNSISSGYYWVWFRQSPGKGLEWIASIYHSGSTYYNPSLRSRVSISVDTSKKQFSLKLSSVTAADTAVYYCARDSAKTTRYFVHWGQGTLVTVSS VL: AELTQSPGTLSLSPGERATLSCRASQSVSSSYLAWYQQKAGQAPRLLIYGASRRATGIPVRFSGSGSGAEFTLTISSLQSEDSAVYYCQHYHNWPAMYTFGQGTKLEIK | 0.96 | 0.67
9 | Fab clone 2b-1 (Fab, V domains shown, Human Fab (gamma1 Fd + kappa), crude periplasmic preparation, approx. 0.94 ug Fab/ml) VH: EVQLLESGPRLVKPSQTLSLTCTVSGDSLNNASHYWAWIRQPAGKGLEWIGRIHRGGSTNYNPSLQSRVTISMDESKNQFSLRLNSVTAADTAVYYCARDPPKAWGPGILVTVSS VL: AELTQSPSSLSASVGDRVTIACRASQSISNHLNWYQQKPGKAPKVLIYAASSLQSGVPSRFSGSGSGTDFTLTISSLQPEDFAIYYCQQSYSNADFGPGTKVDIK | 0.35 | 0.12
10 | Fab clone 2a-37 (Fab, V domains shown, Human Fab (gamma1 Fd + kappa), crude periplasmic preparation, approx. 0.08 ug Fab/ml) VH: EVQLLESGGGLVQPGRSLRLSCAASGFTFSNSDMHWVRQAPGKGLEWVTVSSRDGYDNYYADSVRGRFTISRDNSKNTLYLQMNTLRAEDTAVYYCAKRRGYAFDIWGQGTMVTVSS VL: AELTQSPSSLSASVGDRVTITCRASQSINTYLNWYQQKPGKAPELLIYGASSLQSGVPSRFSGSGSGTDFTLTITSLQAEDFASYFCQQSDSTPRTFGQGTKVEIK | 0.99 | 0.48
11 | Fab clone 2b-17 (Fab, V domains shown, Human Fab (gamma1 Fd + kappa), crude periplasmic preparation, approx. 0.16 ug Fab/ml) VH: EVQLLESGGGLVQPGRSLRLSCAASGFTFSNSDMHWVRQAPGKGLEWVTVSSRDGYDNYYADSVRGRFTISRDNSKNTLYLQMNTLRAEDTAVYYCAKRRGYAFDIWGQGTMVTVSS VL: AELTQSPSSLSASVGDRVTITCRASQSINTYLNWYQQKPGKAPELLIYGASSLQSGVPSRFSGSGSGTDFTLTITSLQAEDFASYFCQQSDSTPRTFGQGTKVEIK | 0.24 | –
12 | Fab clone 1:10 (Fab, V domains shown, Human Fab (gamma1 Fd + kappa), crude periplasmic preparation, approx. 0.01 ug Fab/ml) VH: EVQLLESGAEVKKPGESLRISCRGSGYSFPNYWVSWVRQMPGKGLEWMGKIDPSDSETNYSPSFQGHVTISADKSLSIAYLQWNSLKASDTAMYYCARHKRGAPTYKDILTGYYVDGMDVWGQGTTVTVSS VL: AELTQSPDSLAMSLGERASINCKSSRSLLYSSNNKNYLAWYQQKSGHPPKLLIYWASTRESGVPDRFNGSGSGTDFTLTISSLQAEDVAVYFCQQYYSSPLTFGGGTKVEIK | 0.2 | 0.12
13 | Fab clone 1:8 (Fab, V domains shown, Human Fab (gamma1 Fd + kappa), crude periplasmic preparation, approx. 0.01 ug Fab/ml) VH: EVQLLESGGGLVEPGRSLRLSCAASGFNFGDYAIHWVRQGPGKGLEWVAGISWNSGSIGYADSVKGRFIISRDNAKKTLFLQMNTLRTEDTALYYCVKETGAQGVAGSGAYYFHNWGQGTLVTVSS VL: AELTQSPSSLSASIGDRVTITCRASQGISNYVAWYQQRPGKVPKLLIFGASALHSGVPSRFSGSGSGTDFTLTITSLQPEDVATYYCQKYRSAPLTFGPGTRVDLK | 0.75 | 0.53
14 | Fab clone 2a-33 (Fab, V domains shown, Human Fab (gamma1 Fd + kappa), crude periplasmic preparation, approx. >1 ug Fab/ml) VH: VQLLEQSGGGLVQPGRSLRLSCAASGFTFDDYAMHWVRQTPGKGLEWVSGIGWNSGTIEYADSVKGRFTISRDNAKNSLYLQMNSLRPEDTALYYCAKDLHSFGYCSGRSCYFHPFDYWGQGTLVTVSS VL: not shown | 0.65 | 0.14
15 | Fab clone 6a:5 (Fab, V domains shown, Tested as a human Fab (gamma1 Fd + kappa), crude periplasmic preparation, approx. 0.33 ug Fab/ml) VH: EVQLLESGPGLVKPSQTLSLTCAISGDNVSRKSAAWNWIRQSPSRGLEWLGRTYHMSKWYSVYATSLKSRININVDTSRNQFALQLRSVTPEDTAVYYCAREGPEWAVGGTYGMDVWGQGTTVTVSS VL: AELTQSPDTLSLSPGERATLSCRASQSVNNNYLAWYQQKPGQAPRLLIYGASSRATGIPDRFSGSGSETDFTLTISRLEPEDFAVYYCQQYDSSRTFGQGTKVEIK | 0.15 | 0.09
16 | Fab clone 98 (Fab, V domains shown, Human Fab (gamma1 Fd + kappa light chain), tested as a crude periplasmic preparation, approx. 5 ug Fab/ml) VH: EVQLLEQSGAEVKKPGESLRISCRGSGYSFPNYWVSWVRQMPGKGLEWMGKIDPSDSETNYSPSFQGHVTISADKSLSIAYLQWNSLKASDTAMYHCARHKRGAPTYKDILTGYYVDGMDVWGQGTTDTVSS VL: AELTQSPSSLSASVGDRVTITCQASPDISNYLNWYQQKPGKAPNLLIYGASSLQRGVPSRLSGSGSGTDFTLTIDSLQPEDFATYYCQQSYGSPHTFGQGTKVEIK | 0.2 | –
17 | Fab clone 2a-14 (Fab, V domains shown, Human Fab (gamma1 Fd + kappa), crude periplasmic preparation, approx. 0.72 ug Fab/ml) VH: VQLLEQSGGGVVQPGRSLRLSCAASGFTFSTYAMHWVRQAPGKGLEWVAVISHDGSNKFYADSVKGRFTISRDSSKNTLYLQMNSLRPGDTAVYYCSRWDRRAEYFQDWGQGTLVTVSS VL: AELTQSPAFMSATPGDKVNISCKASQDIDDDMNWYQQKPGEAAIFIIQEATTLVPGIPPRFSGSGYGTDFTLTINNIESEDAAYYFCLQHDNFPLTFGQGTKVEIK | 0.36 | 0.09
18 | Fab clone 2a-23 (Fab, V domains shown, Human Fab (gamma1 Fd + kappa), crude periplasmic preparation, approx. 0.50 ug Fab/ml) VH: EVQLLESGAGVVQPGKSLTLSCVGSGFTFSIYAMHWVRQAPGKGLEWVAVLSSDGSNDYYADSVKGRFSIFRDTSKNSLNLLMNNVRGEDTAVYYCARDGDGSFFYWGQGTLVTVSS VL: AELTQSPAFMSATPGDKVNISCKASQDIDDDMNWYQQKPGEAAIFIIQEATTLVPGIPPRFSGSGYGTDFTLTINNIESEDAAYYFCLQHDNFPLTFGQGTKVEIK | 1.47 | –
19 | Fab clone 2a-40 (Fab, V domains shown, Human Fab (gamma1 Fd + kappa), crude periplasmic preparation, approx. 1.0 ug Fab/ml) VH: VQLLEQSGGGLVKPGGSLRLSCTASGFTFSGFTFSDHYMSWIRQAPGKGLELVSYIISNGYTNYPDSVKGRFTVSRDNARKSLYLQMNSLRVEDTAIYYCARGLSPSIAGDGFDIWGQGTMVTVSS VL: AELTQSPAFMSATPGDKVNISCKASQDIDDDMNWYQQKPGEAAIFIIQEATTLVPGIPPRFSGSGYGTDFTLTINNIESEDAAYYFCLQHDNFPLTFGQGTKVEIK | – | 0.17
20 | Fab clone 2a-13 (Fab, V domains shown, Human Fab (gamma1 Fd + kappa), crude periplasmic preparation, approx. 0.36 ug Fab/ml) VH: EVQLLESGPGLVKPSETLSLTCTVSGGSISDYYWSWIRQPPGKGLEWIGHTYDNGGTKYNPSLKSRASISVDTSKNQVSLRLTSVTAADTAVYYCATAFLDNSGWYTFDSWGQGSLVTV VL: AELTQSPSSVSASVRDRVTITCRASQGISTWLAWYQQKPGKAPKLLIYAASTLQSGVPSRFSGSGSGTDFTLTIGSLQPEDVATYYCQQANSFPPGALTFGGGTKVEVK | 1.05 | –
21 | Fab clone 2b-9 (Fab, V domains shown, Human Fab (gamma1 Fd + kappa), crude periplasmic preparation, approx. 0.19 ug Fab/ml) VH: LLESGPGLVQPSQTLSLTYAISGDSVSSNSAAWTWIRQSPSRGLEWLGMTYYRSQWYHEYAVSLKSRITINADTSNNQFSLQVNSVTPEDTALYYCARARFVGDTTGYYTFDYWGQGTLVTVSS VL: AELTQSPGTLSLSPGERGTLSCRASQSVSSSYLAWYQQKAGQAPRLLIYGASSRATGIPDRFSGSGSGTDFTLTISRLEPEDFAVYYCQRYGTSPKTFGQGTKVEFK | 0.33 | –
